In paper doi:10.1101/2023.02.06.527249:

Columns and labels:
[1] = molecular target: HLA-C*05:01 (1-278) refolded with β2-microglobulin (1-99) and P2-AV (…); test: SPR
[2] = molecular target: HLA-C*05:01 (1-278) refolded with β2-microglobulin (1-99) and P2-AW (…); test: SPR
[3] = molecular target: HLA-C*05:01 (1-278) refolded with β2-microglobulin (1-99) and P2-IP (…); test: SPR
[4] = molecular target: HLA-C*16:02 on cells loaded with P9 with the Q8S substitution (…) (human | human (endogenous in 721.221)); test: flow cytometry on cells
[5] = molecular target: HLA-C*05:01 on cells loaded with P2-MW with p6 Asn (human | human (endogenous in 721.221)); test: flow cytometry on cells
[6] = molecular target: HLA-C*08:02 on cells loaded with P2-MW with p6 Ile (human | human (endogenous in 721.221)); test: flow cytometry on cells
[7] = molecular target: HLA-C*08:02 on cells loaded with P2-MW with p6 Leu (human | human (endogenous in 721.221)); test: flow cytometry on cells
[8] = molecular target: HLA-C*08:02 on cells loaded with P2-MW with p6 Lys (human | human (endogenous in 721.221)); test: flow cytometry on cells
[9] = molecular target: HLA-C*08:02 on cells loaded with P2-MW with p6 Pro (human | human (endogenous in 721.221)); test: flow cytometry on cells
[10] = molecular target: HLA-C*08:02 on cells loaded with P2-MW with p6 Val (human | human (endogenous in 721.221)); test: flow cytometry on cells

Substance | Kd [1] [nM] | Kd [2] [nM] | Kd [3] [nM] | also measured
2DL1 (1-224), recombinant, refolded (from UniProt P43626 22-245) (domain or fragment) | 1000 | 1100 | 440 | –
2DS1 (3-200), recombinant, refolded (domain or fragment) | 2600 | 1900 | 2300 | –
2DS4 (3-200), recombinant, refolded (domain or fragment) | – | 2000 | – | –
KIR2DS1*001-Fc (from UniProt Q14954 22-245) (Fc fusion) | – | – | – | fold change of binding against unmodified P9 [4]: 5 fold
KIR2DS4*001 KIR-Ig (KIR-Fc) fusion protein (from UniProt P43632 22-245) (Fc fusion) | – | – | – | percent of the binding with p6 Gly (P2-MW) [5]: > 25%; percent of the binding with p6 Gly (P2-MW) [6]: > 50%; percent of the binding with p6 Gly (P2-MW) [7]: > 50%; percent of the binding with p6 Gly (P2-MW) [8]: > 50%; percent of the binding with p6 Gly (P2-MW) [9]: > 50%; percent of the binding with p6 Gly (P2-MW) [10]: > 50%
